Source: patent US20230099801A1, “RESTORATION OF T CELL ACTIVITY VIA THE CD39/CD73 AXIS” (INNATE PHARMA, priority 2017, published 2023)
“Also recorded” adds a separate entry of the source.

Tests used:
[1] = molecular target: T1, cell-membrane bound CD39 (CD39-expressing cells) (Homo sapiens, UniProt P49961); test: Inhibition of the enzymatic activity of cellular CD39, Cell Titer Glo; format: cell-based
T1 construct: host or cells: CD39-expressing cells
T1 sequence (P49961 1-510): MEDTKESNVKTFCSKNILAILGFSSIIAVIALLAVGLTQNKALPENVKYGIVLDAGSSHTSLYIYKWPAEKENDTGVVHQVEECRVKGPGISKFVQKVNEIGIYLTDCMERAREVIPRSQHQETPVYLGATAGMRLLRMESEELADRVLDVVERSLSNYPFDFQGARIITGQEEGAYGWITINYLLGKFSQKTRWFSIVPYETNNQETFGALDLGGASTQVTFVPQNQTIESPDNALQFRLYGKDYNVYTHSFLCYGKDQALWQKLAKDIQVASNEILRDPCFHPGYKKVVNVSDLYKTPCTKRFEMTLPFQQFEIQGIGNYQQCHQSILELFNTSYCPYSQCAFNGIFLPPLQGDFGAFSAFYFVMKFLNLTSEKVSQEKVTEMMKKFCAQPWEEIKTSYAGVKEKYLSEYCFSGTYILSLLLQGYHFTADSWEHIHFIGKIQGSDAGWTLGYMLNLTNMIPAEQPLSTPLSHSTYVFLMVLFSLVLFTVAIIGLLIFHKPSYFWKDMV
Procedure: The ability of an antibody to inhibit cells expressing CD39 protein can be tested by detecting ATP after incubating test antibody with cells (e.g., Ramos cells, cells transfected with CD39, etc.). See, e.g., Example 1. Cells can be incubated for 1 hour at 37° C. with test antibody. Cells are then incubated with 20 μM ATP for 1 additional hour at 37° C. Plates are centrifuged for 2 min at 400 g and cell supernatant are transferred in a luminescence microplate (white wells). CTG is added to the supernatant and emitted light is quantified after a 5 min incubation in the dark using an Enspire™ luminometer. Anti-CD39 antibody efficacy is determined by comparing emitted light in presence of antibody with ATP alone (maximal light emission) and ATP together with cells (minimal light emission).
The inhibition of the CD39 enzymatic activity in CD39-expressing cells by antibodies was evaluated using Cell Titer Glo™ (Promega, reference G7571) that allows assessment of ATP hydrolysis through use of a reagent that generates a luminescent signal proportional to the amount of ATP present. […] Plates were centrifuged for 2 min at 400 g and 50 μl cell supernatant are transferred in a luminescence microplate (white wells). 50 μl CellTiter-Glo® Reagent (CTG) was added to the supernatant and emitted light was quantified after a 5 min incubation in the dark using a Enspire™ luminometer. […]

[2] = system: CHO cells expressing cynomolgus CD39 (CHO-cyCD39); test: Antibody titration on CHO-cyCD39 cells by flow cytometry; format: binding, cynomolgus (Macaca fascicularis)
Procedure: Cells were incubated with various concentration of unlabeled anti-CD39 antibody from 30 μg/ml to 5×10^−4 μg/ml, for 30 minutes at 4° C. After washes, cells were incubated with Goat anti-mouse H+L labeled secondary antibody for 30 min at 4° C.

[3] = molecular target: T2, human CD39 (CHO-huCD39) (Homo sapiens, UniProt P49961); test: Inhibition of cellular CD39 ATPase activity in CHO-huCD39 cells; format: cell-based
T2 construct: expressed in transfected cells; host or cells: CHO cells
T2 sequence (P49961 1-510): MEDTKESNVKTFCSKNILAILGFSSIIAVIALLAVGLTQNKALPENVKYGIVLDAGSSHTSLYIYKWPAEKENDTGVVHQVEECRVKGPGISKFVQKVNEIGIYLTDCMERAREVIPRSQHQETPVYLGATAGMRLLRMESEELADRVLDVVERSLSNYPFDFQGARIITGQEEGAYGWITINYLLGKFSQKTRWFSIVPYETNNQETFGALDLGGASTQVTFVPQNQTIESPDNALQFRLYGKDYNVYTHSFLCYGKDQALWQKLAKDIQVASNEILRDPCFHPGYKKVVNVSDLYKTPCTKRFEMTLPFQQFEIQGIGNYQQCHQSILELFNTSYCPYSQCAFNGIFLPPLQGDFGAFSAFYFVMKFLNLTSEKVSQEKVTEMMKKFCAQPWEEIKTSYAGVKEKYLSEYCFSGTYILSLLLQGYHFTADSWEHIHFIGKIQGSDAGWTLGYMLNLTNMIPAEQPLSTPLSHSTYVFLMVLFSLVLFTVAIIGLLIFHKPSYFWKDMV
Procedure: The inhibition of the CD39 enzymatic activity in CD39-expressing cells by antibodies was evaluated using Cell Titer Glo™ (Promega, reference G7571) that allows assessment of ATP hydrolysis through use of a reagent that generates a luminescent signal proportional to the amount of ATP present. The assay was thus designed to permit assessment of the inhibition of ATP hydrolyzed by CD39 in the cell culture supernatant. Briefly, 5×10^4 Ramos human lymphoma cells, 5×10^3 human CD39-, cynomolgus CD39—and mouse CD39-expressing CHO cells, were incubated 1 hour at 37° C. with anti-CD39 antibodies from 30 μg/ml to 5×10^−4 μg/ml. Cells were then incubated with 20 μM ATP for 1 additional hour at 37° C. Plates were centrifuged for 2 min at 400 g and 50 μl cell supernatant are transferred in a luminescence microplate (white wells). 50 μl CellTiter-Glo® Reagent (CTG) was added to the supernatant and emitted light was quantified after a 5 min incubation in the dark using a Enspire™ luminometer. Anti-CD39 antibody efficacy was determined by comparing emitted light in presence of antibody with ATP alone (maximal light emission) and ATP together with cells (minimal light emission).

[4] = molecular target: T3, Human CD39-L1 (NTPDase2, ENTPD2) (Homo sapiens, UniProt Q9Y5L3); test: ELISA titration on CD39-L1; format: binding
T3 sequence (Q9Y5L3 1-472 isoform Q9Y5L3-2): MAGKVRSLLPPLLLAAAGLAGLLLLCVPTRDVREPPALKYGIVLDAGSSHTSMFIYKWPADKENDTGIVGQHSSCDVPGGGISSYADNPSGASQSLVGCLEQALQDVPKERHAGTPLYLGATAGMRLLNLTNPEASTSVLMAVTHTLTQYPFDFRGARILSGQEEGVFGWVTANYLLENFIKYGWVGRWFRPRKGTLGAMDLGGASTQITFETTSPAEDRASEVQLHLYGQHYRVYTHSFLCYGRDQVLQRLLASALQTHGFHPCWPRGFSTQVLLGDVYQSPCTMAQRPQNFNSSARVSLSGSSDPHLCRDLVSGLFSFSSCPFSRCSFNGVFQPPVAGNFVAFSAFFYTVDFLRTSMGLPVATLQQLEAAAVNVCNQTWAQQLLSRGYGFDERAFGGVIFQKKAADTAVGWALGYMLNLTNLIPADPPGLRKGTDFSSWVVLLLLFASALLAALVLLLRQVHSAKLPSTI
Procedure: Wells were washed in TBS Tween 20, and further saturated 2H at RT in TBS Blocking buffer. Dose range concentration of primary antibody was incubated in TBS blocking buffer for 2h at RT. Wells were washed in TBS Tween 20. […] Optical density was measured on Enspire™ at OD=450.

- blocking CD39 enzymatic activity in cells expressing human CD39 [3]: blocks; also recorded: highly potent
- binding to CD39-L1 in ELISA [4]: not to any of the human isoforms
B1: I-394: anti-CD39 antibody, VH SEQ ID NO: 6, VL SEQ ID NO: 7; heavy/light chains SEQ ID NOS: 52 and 53 (antibody)
heavy: EVQLQQSGPELVKPGASVKMSCKASGYTFTDYNMHWVKQSHGRTLEWIGYIVPLNGGSTFNQKFKGRATLTVNTSSRTAYMELRSLTSEDSAAYYCARGGTRFAYWGQGTLVTVSAASTKGPSVFPLAPSSKSTSGGTAALGCLVKDYFPEPVTVSWNSGALTSGVHTFPAVLQSSGLYSLSSVVTVPSSSLGTQTYICNVNHKPSNTKVDKRVEPKSCDKTHTCPPCPAPEAEGAPSVFLFPPKPKDTLMISRTPEVTCVVVDVSHEDPEVKFNWYVDGVEVHNAKTKPREEQYNSTYRVVSVLTVLHQDWLNGKEYKCKVSNKALPSSIEKTISKAKGQPREPQVYTLPPSREEMTKNQVSLTCLVKGFYPSDIAVEWESNGQPENNYKTTPPVLDSDGSFFLYSKLTVDKSRWQQGNVFSCSVMHEALHNHYTQKSLSLSPGK
light: DIVLTQSPASLAVSLGQRATISCRASESVDNFGVSFMYWFQQKPGQPPNLLIYGASNQGSGVPARFRGSGSGTDFSLNIHPMEADDTAMYFCQQTKEVPYTFGGGTKLEIKRTVAAPSVFIFPPSDEQLKSGTASVVCLLNNFYPREAKVQWKVDNALQSGNSQESVTEQDSKDSTYSLSSTLTLSKADYEKHKVYACEVTHQGLSSPVTKSFNRGEC
modifications: Chimeric homo sapiens mus musculus
- inhibition of the enzymatic activity of cellular (cell-membrane bound) CD39 [1]: substantially fully blocks; also recorded: inhibit
- potency and maximal inhibition of cellular CD39 compared to BY40 ([1]; FIG. 2A): greater potency and maximal inhibition; also recorded: greater potency at all concentrations as well as greater maximal inhibition
- binding to cells expressing cynomolgus CD39 [2]: bound; also recorded: binds
